Measurements published in paper PMC4746636.
Values joined by “and” are separate entries in the source; they are usually repeats but may differ in a detail not shown here. Identical values can stand only once. Blank lines part the entries; values can stand above or below the molecule they belong to.

Experiments:
TRF2 = TRF2 (UniProt Q15554); assay: AFM imaging; conditions: N = 126; same conditions as T270; EMSA: 5 nM DNA, 100 nM TRF2, agarose gel; buffer, salt, pH and temperature not given in the material; AFM compaction comparison of TRF2ΔB at 300 nM protein
[1] = target: T1, TRF2 (full length, recombinant His6-tagged) (human), Q15554; assay: AFM volume analysis; TRF2 (400 nM, mixed with an equal volume of DNA) incubated with linear T270 DNA (270 TTAGGG repeats) for 30 min in 50 mM HEPES, 150 mM KCl, pH 7.5, diluted 10 fold and deposited on mica; volumes of small DNA-bound complexes (< 500 nm^3); conditions: remark: other sources report otherwise
T1 chain: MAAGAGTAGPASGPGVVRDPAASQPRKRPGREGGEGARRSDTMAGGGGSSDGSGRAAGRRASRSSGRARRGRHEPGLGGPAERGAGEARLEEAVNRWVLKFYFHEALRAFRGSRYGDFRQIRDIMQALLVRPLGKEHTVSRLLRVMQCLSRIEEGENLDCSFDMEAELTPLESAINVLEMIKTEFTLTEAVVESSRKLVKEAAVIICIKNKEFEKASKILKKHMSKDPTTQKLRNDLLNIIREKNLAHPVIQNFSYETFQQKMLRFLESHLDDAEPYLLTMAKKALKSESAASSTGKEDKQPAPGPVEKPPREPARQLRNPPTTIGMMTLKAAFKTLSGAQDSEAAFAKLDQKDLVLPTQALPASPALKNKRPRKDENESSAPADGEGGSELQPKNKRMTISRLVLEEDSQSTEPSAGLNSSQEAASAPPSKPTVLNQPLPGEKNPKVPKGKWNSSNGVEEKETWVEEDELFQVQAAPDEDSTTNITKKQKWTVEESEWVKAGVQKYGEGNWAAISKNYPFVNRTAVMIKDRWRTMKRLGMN

[2] = target: T1, TRF2 (full length, recombinant …); assay: AFM volume analysis; TRF2 protein alone deposited on mica; AFM volume converted to oligomeric state by a calibration curve of volume against molecular weight; monomer to dimer; conditions: remark: other sources report otherwise

Molecule: DNA with no telomeric sequences
binding signal (% DNA with large complexes) (TRF2): < 8

stoichiometry N [1]: 2 and 4
stoichiometry N [2]: 2
B1: TRF2 (full length, recombinant His6-tagged), Q15554 1-542 (natural protein)
chain: T1 chain
